Measured values reported in patent US11434506B2, “Production of desaturated fatty alcohols and desaturated fatty alcohol acetates in yeast” (Danmarks Tekniske Universitet, priority 2016, dated 2022).

B1: D. melanogaster desaturase: Δ9 desaturase from Drosophila melanogaster Dmd9, SEQ ID NO: 10 (protein)
chain: MAPYSRIYHQDKSSRETGVLFEDDAQTVDSDLTTDRFQLKRAEKRRLPLVWRNIILFALVHLAALYGLHSIFTRAKLATTLFAAGLYIIGMLGVTAGAHRLWAHRTYKAKWPLRLLLVIFNTIAFQDAVYHWARDHRVHHKYSETDADPHNATRGFFFSHVGWLLCKKHPDIKEKGRGLDLSDLRADPILMFQRKHYYILMPLACFVLPTVIPMVYWNETLASSWFVATMFRWCFQLNMTWLVNSAAHKFGNRPYDKTMNPTQNAFVSAFTFGEGWHNYHHAFPWDYKTAEWGCYSLNITTAFIDLFAKIGWAYDLKTVAPDVIQRRVLRTGDGSHELWGWGDKDLTAEDARNVLLVDKSR
modifications: Drosophila melanogaster

Assays:
fall armyworm = settings: applied alone, without other pheromone components; cited from earlier work
[1] = production of (Z)-9-tetradecen-1-yl acetate by S. cerevisiae CEN.PK102-5B strains, GC-MS; settings: overexpression of desaturase, ST5290 versus ST4854
Protocol: The strains for production of pheromone were created on the basis of S. cerevisiae CEN.PK102-5B, which had active OLE1 and ELO1 genes.
Strains ST4854 and ST5290 were inoculated into 5 ml synthetic complete medium (lacking histidine, leucine, tryptophan supplemented with 20 mg/L uracil and 76 mg/L histidine) and cultivated in 12-ml glass tubes (Duran, Wertheim, Germany) with metal labocap lids (Lüdiswiss, Flawil, Switzerland) overnight at 30° C. with shaking at 250 rpm. The following day the overnight culture was centrifuged, the supernatant was discarded and the pellet was resuspended in 2 ml of mineral medium, which had the composition as described in (Jensen et al, 2014). The medium was supplemented with 76 mg/L histidine and 20 mg/L uracil. The cultures were incubated at 30° C. with shaking at 250 rpm for 48 hours.
1 mL sample of culture was transferred into a 4-mL glass vial and 10 μL of internal standard stock (1 μg/μl (Z)10-heptan-1-yl methyl ester in 100% ethanol) was added. The vials were covered with small pieces of aluminum foil and we used a needle to pierce small holes in the foil covers. The samples were vortexed and placed at −80° C. for storage until analysis. […] The concentration of (Z)-9-tetradecen-1-yl acetate was calculated based on internal standard.

C14-CoA substrate = assay: activity and specificity of heterologous desaturases in yeast fed methyl myristate, FAMEs by GC-MS; type: cell-based, S. cerevisiae; settings: among the tested desaturases

Molecule | disruption of mating efficiency (fall armyworm) | increase of titer of Z9:14:OAc [1] | activity and specificity towards C14-CoA substrate (C14-CoA substrate)
CCCC/C=C\CCCCCCCCOC(C)=O [(Z)19-14:OAc, (Z)9-tetradecen-1-yl acetate] | 86% | – | –
B1 | – | more than 5 fold | highest activity and specificity
